# Experimental data from US6407207B1, “Cloned and expressed human bradykinin BK-2 receptor” (Merck & Co., Inc., priority 1992, dated 2002).
# Where a SMILES comes first, the peptide text is derived from it. Where no end group is shown, it is not given here. [ ]: non-standard residue; d: D form. Hyp = O=C(O)[C@@H]1C[C@@H](O)CN1; 2Thi = N[C@@H](Cc1cccs1)C(=O)O
# T1: human BK-2 receptor (Homo sapiens, UniProt P30411)
# T1 construct: permitted the construction of a cDNA clone encoding a full length BK-2 receptor from the cleavage fragments of the two clones; expressed in transfected cells; host or cells: COS-7 cells, vector pcDNA I-Neo, membranes
# T1 sequence (P30411 1-364 isoform P30411-2): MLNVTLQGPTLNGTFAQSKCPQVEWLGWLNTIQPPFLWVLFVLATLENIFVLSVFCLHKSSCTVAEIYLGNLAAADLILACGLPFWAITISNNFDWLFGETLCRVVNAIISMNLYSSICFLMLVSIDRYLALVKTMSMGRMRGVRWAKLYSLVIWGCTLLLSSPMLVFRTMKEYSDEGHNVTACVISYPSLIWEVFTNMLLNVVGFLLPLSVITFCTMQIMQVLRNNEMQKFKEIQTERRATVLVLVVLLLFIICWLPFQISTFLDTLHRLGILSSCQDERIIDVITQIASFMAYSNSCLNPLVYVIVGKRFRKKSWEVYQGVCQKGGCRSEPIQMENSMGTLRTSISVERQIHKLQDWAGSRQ
# T2: B2 receptors (Homo sapiens, UniProt P30411)
# T2 sequence (P30411 1-391): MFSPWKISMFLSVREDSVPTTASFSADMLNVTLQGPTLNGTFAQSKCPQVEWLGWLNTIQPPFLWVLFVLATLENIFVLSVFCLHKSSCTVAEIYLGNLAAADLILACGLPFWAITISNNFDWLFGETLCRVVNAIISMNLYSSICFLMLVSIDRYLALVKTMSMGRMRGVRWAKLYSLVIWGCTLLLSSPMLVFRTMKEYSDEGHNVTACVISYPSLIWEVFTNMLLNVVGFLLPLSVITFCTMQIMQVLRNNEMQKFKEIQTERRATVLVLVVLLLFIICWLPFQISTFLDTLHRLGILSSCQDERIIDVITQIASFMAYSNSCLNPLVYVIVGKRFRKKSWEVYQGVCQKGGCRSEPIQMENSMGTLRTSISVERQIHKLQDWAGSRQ
# T3: human bradykinin BK-2 receptor protein (human, UniProt P30411 28-391)
# T3 construct: also called human BK-2 bradykinin receptor; cloned BK receptor
# T3 sequence: T1 sequence (P30411 1-364 isoform P30411-2)
# T4: human bradykinin BK-2 receptor protein (human), P30411
# T4 chain: T1 sequence (P30411 1-364 isoform P30411-2)
# B1: Hoe 140, D-Arg^0-[Hyp^3,Thi^5,D-Tic^7,Oic^8]BK (peptide)
# peptide: RRPPGFSPFR
# modifications: numbered on bradykinin: D-Arg at 0; Hyp at 3; Thi at 5; D-Tic at 7; Oic at 8
# notes: Synthetic BK-2 antagonist with non-natural residues
# B2: met-lys-BK (peptide)
# peptide: MKRPPGFSPFR
# notes: It is built from its name (Met-Lys + bradykinin)
# Assays:
# human BK-2 receptor = molecular target: T1, human BK-2 receptor; assay: Competition binding against 100 pM [3H]BK, membranes of COS-7 cells expressing the cloned receptor; settings: for IC50: competition with [3H]BK, read-out: IC50, displacement of [3H]BK binding; for Inhibition of BK binding: at a concentration of 10 uM
# Experimental: (§1) Cells are then harvested after 72 hours and the membranes containing the expressed receptor protein are prepared by scraping the cells in phosphate buffered saline solution and centrifuging for ten minutes at 500×g. The cell pellet is then resuspended and homogenized with a Polytron in 20 mM N-tris(hydroxymethyl)methyl-2-aminoethane sulfonic acid (TES, pH 6.8 at room temperature) buffer containing 1 mM 1,10 phenanthroline. The homogenate is then centrifuged for ten minutes at […]. The final membrane pellet is resuspended in assay buffer (TES plus 0.1% protease free bovine serum albumin, 5 uM MK-422 (enalaprilat; Gross et al., J. Pharmacol. and Exper. Ther. 216, 552-557 (1981)) and 140 ug/ml bacitracin using a motor-driven teflon-glass tissue homogenizer. Protein determination are performed by the method of Bradford using bovine IgG as the standard. See Bradford, M. A. Anal. Biochem. 72, 248-254 (1976).
# (§2) Binding assays are then performed to determine receptor antagonist or agonist interaction. The assays utilized in the instant invention follow the method of Manning et al., J. Pharmacol. Exp. Ther., 237, 504-512 (1986). […] (BRANDEL, Gaithersburg, Md.). The tubes are then rinsed two times with 4 ml ice-cold 10 uM TES and the filter bound radioactivity is quantitated by liquid scintillation counting. […] The competition and saturation experiments are analyzed using the EBDA program of McPherson. See McPherson, G. A. J Pharmacol. Methods 14, 213-218 (1985).
# as §1, with “Cells were” for “Cells are”, “protein were” for “protein are”, “pellet was” for “pellet is”, “homogenate was” for “homogenate is”, “al., 1981)” for “al., J. Pharmacol. and Exper. Ther. 216, 552-557 (1981))”, “determination was” for “determination are”
# as §2, with “assays were” for “assays are”, “tubes were” for “tubes are then”, “[…]” for “uM TES”, “radioactivity was” for “radioactivity is”, “experiments were” for “experiments are”
# B2 receptors = molecular target: T2, B2 receptors; settings: cited from earlier work
# rat vas deferens = settings: cited from earlier work
# [1] = molecular target: T3, human bradykinin BK-2 receptor protein; assay: competition binding with 100 pM [3H]BK, cloned human BK-2 receptor in membranes
# Experimental: as §2, with “*J.” for “J.”, “Ther.*,” for “Ther.,”, “504–512” for “504-512”, “*J” for “J”, “Methods*” for “Methods”, “213–218” for “213-218”
# (§3) Binding assays were then performed to determine receptor antagonist or agonist interaction. The assays utilized in the instant invention follow the method of Manning et al., *J. Pharmacol. Exp. Ther.*, 237, 504–512 (1986). […] (BRANDEL, Gaithersburg, Md.). The tubes were rinsed two times with 4 ml ice-cold 10 uM TEX and the filter bound radioactivity was quantitated by liquid scintillation counting. […] The competition and saturation experiments were analyzed using the EBDA program of McPherson. See McPherson, G. A. *J Pharmacol. Methods* 14, 213–218 (1985).
# [2] = molecular target: T3, human bradykinin BK-2 receptor protein; assay: competition binding with 100 pM [3H]BK, membranes of COS-7 cells expressing the receptor
# Experimental: as §3, with “assays are” for “assays were”, “tubes are then” for “tubes were”, “[…]” for “uM TEX”, “radioactivity is” for “radioactivity was”, “experiments are” for “experiments were”
# as §3
# [3] = molecular target: T4, human bradykinin BK-2 receptor protein …; assay: displacement of 100 pM [3H]BK, cloned human BK-2 receptor in membranes
molecule,measurement,setting,value
"N=C(N)NCCC[C@@H](N)C(=O)N[C@@H](CCCNC(=N)N)C(=O)N1C[C@H](O)C[C@H]1C(=O)N1C[C@H](O)C[C@H]1C(=O)NCC(=O)N[C@@H](Cc1cccs1)C(=O)N[C@@H](CO)C(=O)N[C@H](Cc1ccccc1)C(=O)N[C@@H](Cc1cccs1)C(=O)N[C@@H](CCCNC(=N)N)C(=O)O [D-Arg^0-[Hyp^2,3,-Thi^5,8D-Phe^7]BK] (H-[dR]R[Hyp][Hyp]G[2Thi]S[dF][2Thi]R-OH; N-terminus and C-terminus assumed)",IC50,human BK-2 receptor,27 nM
"N=C(N)NCCC[C@H](NC(=O)[C@H](Cc1cccs1)NC(=O)[C@@H](Cc1ccccc1)NC(=O)[C@H](CO)NC(=O)[C@H](Cc1cccs1)NC(=O)CNC(=O)[C@@H]1CCCN1C(=O)[C@@H]1CCCN1C(=O)[C@@H](N)CCCNC(=N)N)C(=O)O [[Thi^5,8,D-Phe^7]BK] (H-RPPG[2Thi]S[dF][2Thi]R-OH; N-terminus and C-terminus assumed)",IC50,human BK-2 receptor,180 nM
CC[C@H](C)[C@H](NC(=O)[C@H](CC(=O)O)NC(=O)[C@H](CC(C)C)NC(=O)[C@H](Cc1c[nH]cn1)NC(=O)[C@@H]1CSSC[C@H](N)C(=O)N[C@@H](CO)C(=O)N[C@H]2CSSC[C@H](NC(=O)[C@H](CCC(=O)O)NC(=O)[C@H](CCCCN)NC(=O)[C@H](CC(=O)O)NC(=O)[C@H](CCSC)NC(=O)[C@H](CC(C)C)NC(=O)[C@H](CO)NC(=O)[C@H](CO)NC2=O)C(=O)N[C@@H](C(C)C)C(=O)N[C@@H](Cc2ccc(O)cc2)C(=O)N[C@@H](Cc2ccccc2)C(=O)N1)C(=O)N[C@H](C(=O)N[C@@H](Cc1c[nH]c2ccccc12)C(=O)O)[C@@H](C)CC [endothelin],Competition for BK binding,human BK-2 receptor,No competition
CC[C@H](C)[C@@H]1NC(=O)[C@H](Cc2ccc(O)cc2)NC(=O)[C@@H](N)CSSC[C@@H](C(=O)N2CCC[C@H]2C(=O)N[C@@H](CC(C)C)C(=O)NCC(N)=O)NC(=O)[C@H](CC(N)=O)NC(=O)[C@H](CCC(N)=O)NC1=O [oxytocin],Competition for BK binding,human BK-2 receptor,No competition
"Des-Arg^9BK (RPPGFSPF) [BK-1 agonist, BK metabolite]",Activity at B2 receptors,B2 receptors,inactive
same,Pre- or postsynaptic BK like responses,rat vas deferens,inactive
same,Inhibition of BK binding,human BK-2 receptor,18%
angiotensin I (DRVYIHPFHL) [peptide],Competition for BK binding,human BK-2 receptor,No competition
angiotensin II (DRVYIHPF) [peptide],Competition for BK binding,human BK-2 receptor,No competition
"des-Arg^9-[Leu^8]-BK [Des-Arg^9, LeuBK]",Pre- or postsynaptic BK like responses,rat vas deferens,inactive
same,Antagonism of BK responses in the vas deferens,rat vas deferens; incubation at high concentrations,failed to antagonize
same,Inhibition of BK binding,human BK-2 receptor,11%
met-lys-BK,Specificity of binding of BK analogues (rank order),"human BK-2 receptor; competition binding, data not shown",BK>lys-BK>met-lys-BK
B1,IC50,[1],0.065 nM
B2,binding result,[2],binds
"[dR]R[Hyp][Hyp]G[2Thi]S[dF][2Thi]R [D-Arg^0-[Hyp^2,3,-Thi^5,8D-Phe^7]BK]",IC50,[3],27 nM
"CYIQNCPLG (peptide, UniProt P01178 20-28, looked up) [oxytocin]",binding result,[2],no binding
